# Patent US12186374B2 (Sanofi-Aventis Deutschland GmbH, priority 2014, dated 2025)
# Experiments:
# [1] = test system: patients with T2DM; experiment: ALT increase reported on AE form (Example 3); conditions: on-treatment period
# [2] = test system: patients with T2DM; experiment: Patient disposition / treatment discontinuation (Example 3); type: in vivo; conditions: Randomized population; percentages of patients randomized
# Description: The discrepancy between the strata assigned by IVRS/IWRS and the information reported on electronic Case Report Form (eCRF) will be listed for all randomized patients, • Patients who have completed the 30-week treatment period, • Patients who discontinued the IMP during the 30-week treatment period, and the reasons for treatment discontinuation.
# [3] = test system: patients with T2DM; experiment: Pen-related event questionnaire (Example 3); conditions: on-treatment period
# [4] = test system: patients with T2DM; experiment: Standardized meal test: 2-hour glucose excursion and 2-hour PPG (Example 3); type: in vivo, human
# Method: Patients will undergo a standardized meal challenge to assess fasting and postprandial glucose (central laboratory), as well as plasma glucose excursion.
# The standardized meal contains approximately 600 kcal and is composed of 50 to 55% carbohydrate, 15 to 20% protein and 25 to 30% fat.
# On the day of the standardized meal test, the patients will come to the investigational site in the morning, in fasting conditions for at least 8 hours and must not eat any food or drink, except water, before the scheduled standardized meal test. […] Patient in insulin glargine group will inject their insulin glargine at their usual injection time.
# The standardized meal for all patients should be consumed within a 15-minute period. Blood for plasma glucose is drawn 5 times: • 30 minutes prior to the start of the meal and before IMP administration if the IMP is injected before breakfast; • Just before the start of the standardized meal (0 minute), • 30 minutes after the start of the standardized meal, • 60 minutes after the start of the standardized meal, • 120 minutes after the start of the standardized meal.
# Similar MMRM method or analysis of covariance (ANCOVA) was applied on continuous secondary efficacy endpoints and the Cochran-Mantei-Haenszel method stratified by randomization strata was applied for categorical efficacy endpoints.
# [5] = test system: patients with T2DM; design: species or system human; conditions: in vivo
# Description: (§1) In case the investigator or the patient recognizes any signs of local intolerability at injection site this should be recorded on the standard AE page in the e-CRF. AEs related to local intolerability at the injection site will be identified by searching the term “injection site” in either the PTs coded from the investigator reported terms or the PTs coded from the ARAC diagnosis terms. The number (%) of patients with related events will be summarized by treatment group.
# [6] = test system: patients with Type 2 diabetes mellitus (T2DM); design: species or system human; conditions: in vivo
# Description: as §1
# [7] = test system: patients with T2DM; experiment: Major cardiovascular events adjudicated by CAC (Example 3)
# [8] = test system: patients with Type 2 diabetes mellitus (T2DM); experiment: Increased calcitonin reported on AE form (Example 2); design: Patients with TEAE of increased calcitonin: dose or concentration left out as unconfirmed
# [9] = test system: patients with Type 2 diabetes mellitus (T2DM); experiment: Fasting plasma glucose change from baseline to Week 30 (Example 2); type: in vivo, human
# Method: FPG is measured at a central laboratory. At V5 and V21, FPG will be part of the standardized meal test.
# Similar MMRM method or ANCOVA was applied on continuous secondary efficacy endpoints and Cochran-Mantei-Haenszel method stratified by randomization strata was applied on categorical efficacy endpoints.
# [10] = standardized meal test, ANCOVA, mITT population
# [11] = standardized meal test, mITT population
# [12] = on-treatment period, Safety population
substance,measurement,setting,value
Gly(A21)-Arg(B31)-Arg(B32)-human insulin [Insulin Glargine],Patients with AE of ALT increase,[1]; Example 3,2 patients
same,% of patients with events reported on the AE form for ALT increase: Alanine aminotransferase increased,"[1]; PT, Safety population",0.5%
same,Number of patients with events reported on the AE form for ALT increase: Alanine aminotransferase increased,"[1]; PT, Safety population",2
same,Number of patients with events reported on the AE form for ALT increase: Hepatic enzyme increased,"[1]; PT, Safety population",0
same,% of patients with events reported on the AE form for ALT increase: Any,[1]; Safety population,0.5%
same,Number of patients with events reported on the AE form for ALT increase: Any,[1]; Safety population,2
same,Reason for study treatment discontinuation: Adverse event,[2],3 (0.8%)
same,Status at last study contact: Dead,[2],2 (0.5%)
same,"Patients reporting pen-related events, %",[3]; Example 3,4.1%
same,"Patients reporting pen-related events, number",[3]; Example 3,15 patients
same,% of patients with events reported in pen-related event questionnaire: Any pen-related events,[3]; Safety population,4.1%
same,% of patients with events reported in pen-related event questionnaire: Not associated with a clinical event,[3]; Safety population,4.1%
same,Number of patients with events reported in pen-related event questionnaire: Any pen-related events,[3]; Safety population,15
same,Number of patients with events reported in pen-related event questionnaire: Associated with a clinical event,[3]; Safety population,0
same,Number of patients with events reported in pen-related event questionnaire: Not associated with a clinical event,[3]; Safety population,15
same,"2-hour PPG, LS mean change",[4]; Example 3,-1.39 mmol/L
same,"2-hour glucose excursion, LS mean change from baseline to Week 30","[4]; Example 3, standardized liquid breakfast meal",-0.47 mmol/L
same,"2-hour plasma glucose excursion, change from baseline to Week 30 (LOCF), LS Mean (SE)",[4]; [10],−0.47 (0.274) mmol/L
same,"2-hour postprandial plasma glucose change from baseline to Week 30 (LOCF), LS Mean (SE)",[4]; [10],−1.39 (0.310) mmol/L
same,"2-hour plasma glucose excursion at Week 30 (LOCF), Mean (SD)",[4]; [11],6.71 (3.34) mmol/L
same,"2-hour plasma glucose excursion at Week 30 (LOCF), Median",[4]; [11],6.40 mmol/L
same,"2-hour plasma glucose excursion, change from baseline to Week 30 (LOCF), Mean (SD)",[4]; [11],−0.44 (3.34) mmol/L
same,"2-hour plasma glucose excursion, change from baseline to Week 30 (LOCF), Median",[4]; [11],-0.30 mmol/L
same,"2-hour postprandial plasma glucose at Week 30 (LOCF), Mean (SD)",[4]; [11],13.41 (3.83) mmol/L
same,"2-hour postprandial plasma glucose at Week 30 (LOCF), Median",[4]; [11],13.10 mmol/L
same,"2-hour postprandial plasma glucose change from baseline to Week 30 (LOCF), Mean (SD)",[4]; [11],−1.56 (4.20) mmol/L
same,"2-hour postprandial plasma glucose change from baseline to Week 30 (LOCF), Median",[4]; [11],-1.50 mmol/L
same,% of patients experiencing injection site reactions: Any injection site reactions,[5],0.5%
same,% of patients experiencing injection site reactions: Injection site hypertrophy,[5],0.3%
same,% of patients experiencing injection site reactions: Injection site reaction,[5],0.3%
same,% of patients experiencing injection site reactions: PTs coded from the investigator reported terms,[5],0.5%
same,Number of patients experiencing injection site reactions: Any injection site reactions,[5],2
same,Number of patients experiencing injection site reactions: Injection site hypertrophy,[5],1
same,Number of patients experiencing injection site reactions: Injection site reaction,[5],1
same,Number of patients experiencing injection site reactions: PTs coded from the investigator reported terms,[5],2
same,Patients who experienced injection site reactions,[5],2 patients
same,Any injection site reactions,[6],8 (1.7%) Number (%)
same,Injection site bruising,[6],4 (0.9%) Number (%)
same,Injection site discomfort,[6],0 Number (%)
same,Injection site erythema,[6],0 Number (%)
same,Injection site haemorrhage,[6],2 (0.4%) Number (%)
same,Injection site irritation,[6],0 Number (%)
same,Injection site nodule,[6],0 Number (%)
same,Injection site pain,[6],2 (0.4%) Number (%)
same,Injection site papule,[6],0 Number (%)
same,Injection site rash,[6],0 Number (%)
same,"Injection site reactions, % of patients",[6],1.7%
same,Injection site reactions: PTs coded from the ARAC diagnosis terms,[6],0 Number (%)
same,Injection site reactions: PTs coded from the investigator reported terms,[6],8 (1.7%) Number (%)
same,Injection site swelling,[6],1 (0.2%) Number (%)
same,Injection site warmth,[6],1 (0.2%) Number (%)
same,"Events adjudicated as major cardiovascular events by CAC, % of patients",[7]; Example 3,1.1%
same,"Events adjudicated as major cardiovascular events by CAC, number of patients",[7]; Example 3,4 patients
same,% of patients with events adjudicated as major cardiovascular events by CAC: Any,[7]; [12],1.1%
same,% of patients with events adjudicated as major cardiovascular events by CAC: Cardiovascular death,[7]; [12],0.3%
same,% of patients with events adjudicated as major cardiovascular events by CAC: Coronary revascularization procedure,[7]; [12],0.8%
same,% of patients with events adjudicated as major cardiovascular events by CAC: Hospitalization for heart failure,[7]; [12],0.3%
same,Number of patients with events adjudicated as major cardiovascular events by CAC: Any,[7]; [12],4
same,Number of patients with events adjudicated as major cardiovascular events by CAC: Cardiovascular death,[7]; [12],1
same,Number of patients with events adjudicated as major cardiovascular events by CAC: Coronary revascularization procedure,[7]; [12],3
same,Number of patients with events adjudicated as major cardiovascular events by CAC: Hospitalization for heart failure,[7]; [12],1
same,Number of patients with events adjudicated as major cardiovascular events by CAC: Hospitalization for unstable angina,[7]; [12],0
same,Number of patients with events adjudicated as major cardiovascular events by CAC: Non-fatal myocardial infarction,[7]; [12],0
same,Number of patients with events adjudicated as major cardiovascular events by CAC: Non-fatal stroke,[7]; [12],0
same,Patients with TEAE of increased calcitonin,[8]; Example 2,One
same,Events reported on the AE form for increased calcitonin (≥20 ng/L): Blood calcitonin increased,[8]; [12],1 (0.2%) n (%)
same,Patients with events reported on the AE form for increased calcitonin (≥20 ng/L): Any,[8]; [12],1 (0.2%) n (%)
same,"FPG, LS mean change from baseline to Week 30",[9]; Example 2,-3.27 mmol/L
same,"Fasting plasma glucose, change from baseline to Week 30, LS Mean (SE)","[9]; MMRM, mITT population",−3.27 (0.091) mmol/L
same,"Fasting plasma glucose, Week 30, Mean (SD)",[9]; mITT population,6.53 (1.76) mmol/L
same,"Fasting plasma glucose, Week 30, Median",[9]; mITT population,6.20 mmol/L
